4 sequences from the supplement of paper PMC5998384 can be followed below.

Data set [1] has as its system HeLa Kyoto. The data set can be described thus: thermal stability score vs G1/S (z-score of summed log2 fold changes over temperatures); higher = more thermally stable than in G1/S.
Data set [2] deals with HeLa Kyoto. As to the kind of experiment: solubility change mitosis vs G1/S (difference of NP-40 vs SDS log2 ratios) (log2 ratio difference); higher = more soluble in mitosis.
Data set [3] has as its system HeLa Kyoto. As to the kind of experiment: melting temperature (median over replicates), in situ; higher = more thermally stable.
Data set [4] concerns HeLa Kyoto. As to the kind of experiment: solubility in G1/S (NP-40 vs SDS abundance) (log2 ratio); higher = more soluble. The settings on record: cell cycle stage: G1/S.
Setting [5] is: cell cycle stage: early G1 (4.5 h after nocodazole release).
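Throughout, for melting temperature (median over replicates), in situ: HeLa Kyoto cells synchronized by double thymidine or nocodazole block, proteins quantified by TMT10plex mass spectrometry, three independent biological replicates.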
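Throughout, for solubility change mitosis vs G1/S (difference of NP-40 vs SDS log2 ratios): synchronized HeLa Kyoto cells (double thymidine block for G1/S, nocodazole release for mitosis), protein amounts in NP-40 versus SDS lysates quantified by mass spectrometry, three biological replicates.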
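Throughout, for solubility in G1/S (NP-40 vs SDS abundance): HeLa Kyoto cells arrested at G1/S by double thymidine block, proteins quantified by TMT10plex mass spectrometry in mild NP-40 versus SDS extracts, three biological replicates.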
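Throughout, for thermal stability score vs G1/S (z-score of summed log2 fold changes over temperatures): synchronized HeLa Kyoto cells, proteins quantified by TMT10plex mass spectrometry, three biological replicates, mitosis taken 0.5 h after nocodazole release, G1/S directly after double thymidine block.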

Consider “MEFAAENEGKSGGGLHSVAEGVRLSPEPGREGVRDLAGAEEFGGGEEGTGLTGIKEIGDGEEGSGQRPEEIPMDLTVVKQEIIDWPGTEGRLAGQWVEQEVEDRPEVKDENAGVLEVKQETDSSLVVKEAKVGEPEVKEEKVKEEVMDWSEVKEEKDNLEIKQEEKFVGQCIKEELMHGECVKEEKDFLKKEIVDDTKVKEEPPINHPVGCKRKLAMSRCETCGTEEAKYRCPRCMRYSCSLPCVKKHKAELTCNGVRDKTAYISIQQFTEMNLLSDYRFLEDVARTADHISRDAFLKRPISNKYMYFMKNRARRQGINLKLLPNGFTKRKENSTFFDKKKQQFCWHVKLQFPQSQAEYIEKRVPDDKTINEILKPYIDPEKSDPVIRQRLKAYIRSQTGVQILMKIEYMQQNLVRYYELDPYKSLLDNLRNKVIIEYPTLHVVLKGSNNDMKVLHQVKSESTKNVGNEN [ZNHIT6]”, for which the thermal stability score came out at 1.3 in data set [1] (setting [5]) and 2.06 in data set [1] (cell cycle stage: mitosis). Besides, the “solubility change mitosis (log2)” value in data set [2] was -0.116. The melting temperature in data set [3] (cell cycle stage: G1/S) stood at 48.4 °C; in data set [3] (cell cycle stage: mitosis), 50.2 °C. Also, the “solubility in G1/S (log2)” value in data set [4] was 0.0397.
Turning to “MEFSGRKWRKLRLAGDQRNASYPHCLQFYLQPPSENISLIEFENLAIDRVKLLKSVENLGVSYVKGTEQYQSKLESELRKLKFSYRENLEDEYEPRRRDHISHFILRLAYCQSEELRRWFIQQEMDLLRFRFSILPKDKIQDFLKDSQLQFEAISDEEKTLREQEIVASSPSLSGLKLGFESIYKIPFADALDLFRGRKVYLEDGFAYVPLKDIVAIILNEFRAKLSKALALTARSLPAVQSDERLQPLLNHLSHSYTGQDYSTQGNVGKISLDQIDLLSTKSFPPCMRQLHKALRENHHLRHGGRMQYGLFLKGIGLTLEQALQFWKQEFIKGKMDPDKFDKGYSYNIRHSFGKEGKRTDYTPFSCLKIILSNPPSQGDYHGCPFRHSDPELLKQKLQSYKISPGGISQILDLVKGTHYQVACQKYFEMIHNVDDCGFSLNHPNQFFCESQRILNGGKDIKKEPIQPETPQPKPSVQKTKDASSALASLNSSLEMDMEGLEDYFSEDS [PRIM2]”, the thermal stability score in data set [1] (setting [5]) was 0.648; in data set [1] (cell cycle stage: mitosis) it was 2.05. Besides, the “solubility change mitosis (log2)” value in data set [2] is -0.116. The melting temperature in data set [3] (cell cycle stage: G1/S) came out at 48.9 °C; in data set [3] (cell cycle stage: mitosis) it was 49 °C. Further, the “solubility in G1/S (log2)” value in data set [4] amounted to 0.23.
Take “MEFYESAYFIVLIPSIVITVIFLFFWLFMKETLYDEVLAKQKREQKLIPTKTDKKKAEKKKNKKKEIQNGNLHESDSESVPRDFKLSDALAVEDDQVAPVPLNVVETSSSVRERKKKEKKQKPVLEEQVIKESDASKIPGKKVEPVPVTKQPTPPSEAAASKKKPGQKKSKNGSDDQDKKVETLMVPSKRQEALPLHQETKQESGSGKKKASSKKQKTENVFVDEPLIHATTYIPLMDNADSSPVVDKREVIDLLKPDQVEGIQKSGTKKLKTETDKENAEVKFKDFLLSLKTMMFSEDEALCVVDLLKEKSGVIQDALKKSSKGELTTLIHQLQEKDKLLAAVKEDAAATKDRCKQLTQEMMTEKERSNVVITRMKDRIGTLEKEHNVFQNKIHVSYQETQQMQMKFQQVREQMEAEIAHLKQENGILRDAVSNTTNQLESKQSAELNKLRQDYARLVNELTEKTGKLQQEEVQKKNAEQAATQLKVQLQEAERRWEEVQSYIRKRTAEHEAAQQDLQSKFVAKENEVQSLHSKLTDTLVSKQQLEQRLMQLMESEQKRVNKEESLQMQVQDILEQNEALKAQIQQFHSQIAAQTSASVLAEELHKVIAEKDKQIKQTEDSLASERDRLTSKEEELKDIQNMNFLLKAEVQKLQALANEQAAAAHELEKMQQSVYVKDDKIRLLEEQLQHEISNKMEEFKILNDQNKALKSEVQKLQTLVSEQPNKDVVEQMEKCIQEKDEKLKTVEELLETGLIQVATKEEELNAIRTENSSLTKEVQDLKAKQNDQVSFASLVEELKKVIHEKDGKIKSVEELLEAELLKVANKEKTVQDLKQEIKALKEEIGNVQLEKAQQLSITSKVQELQNLLKGKEEQMNTMKAVLEEKEKDLANTGKWLQDLQEENESLKAHVQEVAQHNLKEASSASQFEELEIVLKEKENELKRLEAMLKERESDLSSKTQLLQDVQDENKLFKSQIEQLKQQNYQQASSFPPHEELLKVISEREKEISGLWNELDSLKDAVEHQRKKNNDLREKNWEAMEALASTEKMLQDKVNKTSKERQQQVEAVELEAKEVLKKLFPKVSVPSNLSYGEWLHGFEKKAKECMAGTSGSEEVKVLEHKLKEADEMHTLLQLECEKYKSVLAETEGILQKLQRSVEQEENKWKVKVDESHKTIKQMQSSFTSSEQELERLRSENKDIENLRREREHLEMELEKAEMERSTYVTEVRELKDLLTELQKKLDDSYSEAVRQNEELNLLKAQLNETLTKLRTEQNERQKVAGDLHKAQQSLELIQSKIVKAAGDTTVIENSDVSPETESSEKETMSVSLNQTVTQLQQLLQAVNQQLTKEKEHYQVLE [KTN1]”: the results for the thermal stability score in data set [1] (setting [5]) and in data set [1] (cell cycle stage: mitosis) were 5.06 and 7.49, respectively. Moreover, the “solubility change mitosis (log2)” value in data set [2] is 0.0644. The melting temperature in data set [3] (cell cycle stage: G1/S) was 50 °C; in data set [3] (cell cycle stage: mitosis) it was 50.6 °C. The “solubility in G1/S (log2)” value in data set [4] came to 0.422.
For the sequence “MEGAGENAPESSSSAPGSEESARDPQVPPPEEESGDCARSLEAVPKKLCGYLSKFGGKGPIRGWKSRWFFYDERKCQLYYSRTAQDANPLDSIDLSSAVFDCKADAEEGIFEIKTPSRVITLKAATKQAMLYWLQQLQMKRWEFHNSPPAPPATPDAALAGNGPVLHLELGQEEAELEEFLCPVKTPPGLVGVAAALQPFPALQNISLKHLGTEIQNTMHNIRGNKQAQGTGHEPPGEDSPQSGEPQREEQPLASDASTPGREPEDSPKPAPKPSLTISFAQKAKRQNNTFPFFSEGITRNRTAQEKVAALEQQVLMLTKELKSQKELVKILHKALEAAQQEKRASSAYLAAAEDKDRLELVRHKVRQIAELGRRVEALEQERESLAHTASLREQQVQELQQHVQLLMDKNHAKQQVICKLSEKVTQDFTHPPDQSPLRPDAANRDFLSQQGKIEHLKDDMEAYRTQNCFLNSEIHQVTKIWRKVAEKEKALLTKCAYLQARNCQVESKYLAGLRRLQEALGDEASECSELLRQLVQEALQWEAGEASSDSIELSPISKYDEYGFLTVPDYEVEDLKLLAKIQALESRSHHLLGLEAVDRPLRERWAALGDLVPSAELKQLLRAGVPREHRPRVWRWLVHLRVQHLHTPGCYQELLSRGQAREHPAARQIELDLNRTFPNNKHFTCPTSSFPDKLRRVLLAFSWQNPTIGYCQGLNRLAAIALLVLEEEESAFWCLVAIVETIMPADYYCNTLTASQVDQRVLQDLLSEKLPRLMAHLGQHHVDLSLVTFNWFLVVFADSLISNILLRVWDAFLYEGTKVVFRYALAIFKYNEKEILRLQNGLEIYQYLRFFTKTISNSRKLMNIAFNDMNPFRMKQLRQLRMVHRERLEAELRELEQLKAEYLERRASRRRAVSEGCASEDEVEGEA [TBC1D2]”, the thermal stability score in data set [1] (setting [5]) turned out to be 1.39; in data set [1] (cell cycle stage: mitosis), 0.724. Further, the “solubility change mitosis (log2)” value in data set [2] was -0.0396. The melting temperature in data set [3] (cell cycle stage: G1/S) was found to be 49.7 °C; in data set [3] (cell cycle stage: mitosis), 49.4 °C. For the same sequence, the “solubility in G1/S (log2)” value in data set [4] is -0.179.
